Data on one protein can be found in PMC1891289, “Improvement of activity and stability of chloroperoxidase by chemical modification” (BMC Biotechnology, 2007).

For orientation: Km means the substrate concentration at which the rate is half of its maximum.

Substrate in data set [1]: CSc1ccccc1
The experiment in a line: purified protein. The settings on record: 50 mM sodium citrate pH 5.0, 300 μM H2O2, room temperature, apparent, native enzyme. The format is biochemical, Leptoxyphium fumago.

Substrate in data set [2]: Oc1ccccc1
The experiment in a line: purified protein. The format is biochemical, Leptoxyphium fumago. The settings on record: 50 mM sodium citrate pH 5.0, 0.2 mM H2O2, 2.4 mM 4-aminoantipyrine, 30 °C in methods (room temperature in text), apparent, native enzyme.

B1: Chloroperoxidase (CPO) (Leptoxyphium fumago) (protein)
chain: QEPGSGIGYPYDNNTLPYVAPGPTDSRAPCPALNALANHGYIPHDGRAISRETLQNAFLNHMGIANSVIELALTNAFVVCEYVTGSDCGDSLVNLTLLAEPHAFEHDHSFSRKDYKQGVANSNDFIDNRNFDAETFQTSLDVVAGKTHFDYADMNEIRLQRESLSNELDFPGWFTESKPIQNVESGFIFALVSDFNLPDNDENPLVRIDWWKYWFTNESFPYHLGWHPPSPAREIEFVTSASSAVLAASVTSTPSSLPSGAIGPGAEAVPLSFASTMTPFLLATNAPYYAQDPTLGPND
notes: not chemically modified
On to B1, for which the values for the Km in “purified protein [1]” and in the data set “purified protein [2]” were 1640 ± 90 µM and 350 ± 10 µM, respectively.
